Results reported in article PMC5698488.

Molecular target: BG505 Olio6 trimer (HIV-1 (isolate BG505))
Assay: SEC-MALS

Work on BG505 Olio6 trimer (complex) yielded a stoichiometry N of 3.
